Experimental data taken from article doi:10.1101/2020.06.22.166298.

Target: MBP-FhtR (Faecalis heme transport Regulator fused to the maltose binding protein) (Enterococcus faecalis OG1RF)
Experiment: SEC

Substance “MBP-FhtR (Faecalis heme transport Regulator fused to the maltose binding protein) (natural protein)” has a stoichiometry N of 2.
